B1: P56395 (protein, UniProt P56395 1-134, looked up)
chain: MAGQSDKDVKYYTLEEIQKHKDSKSTWVILHHKVYDLTKFLEEHPGGEEVLREQAGGDATENFEDVGHSTDARELSKTYIIGELHPDDRSKIAKPSDTLITTVESNSSWWTNWVIPAISALAVALMYRLYMAED
modifications: full-length
B2: P55050 (protein, UniProt P55050 1-132, looked up)
chain: MAFDGTWKVDRNENYEKFMEKMGINVMKRKLGAHDNLKLTITQDGNKFTVKESSNFRNIDVVFELGVNFPYSLADGTELTGAWTIEGNKLIGKFTRVDNGKELIAVREVSGNELIQTYTYEGVEAKRFFKKE
modifications: full-length
B3: P81117 (protein, UniProt P81117 1-420, looked up)
chain: MRWRIIQVQYCFLLVPCMLTALEAVPIDVDKTKVHNTEPVENARIEPPDTGLYYDEYLKQVIEVLETDPHFREKLQKADIEEIRSGRLSQELDLVSHKVRTRLDELKRQEVGRLRMLIKAKLDALQDTGMNHHLLLKQFEHLNHQNPNTFESRDLDMLIKAATADLEQYDRTRHEEFKKYEMMKEHERREYLKTLSEEKRKEEESKFEEMKRKHEDHPKVNHPGSKDQLKEVWEETDGLDPNDFDPKTFFKLHDVNNDGFLDEQELEALFTRELEKVYNPQNAEDDMIEMEEERLRMREHVMSEIDNNKDRLVTLEEFLRATEKKEFLEPDSWETLDQQQLFTEDELKEYESIIAIQENELKKRAEELQKQKEDLQRQHDHLEAQKQEYHQAVQHLEQKKLQQGIAPSGPAGELKFEPHT
modifications: full-length
B4: P52800 (protein, UniProt P52800 1-336, looked up)
chain: MAMARSRRDSVWKYCWGLLMVLCRTAISRSIVLEPIYWNSSNSKFLPGQGLVLYPQIGDKLDIICPKVDSKTVGQYEYYKVYMVDKDQADRCTIKKENTPLLNCARPDQDVKFTIKFQEFSPNLWGLEFQKNKDYYIISTSNGSLEGLDNQEGGVCQTRAMKILMKVGQDASSAGSARNHGPTRRPELEAGTNGRSSTTSPFVKPNPGSSTDGNSAGHSGNNLLGSEVALFAGIASGCIIFIVIIITLVVLLLKYRRRHRKHSPQHTTTLSLSTLATPKRGGNNNGSEPSDVIIPLRTADSVFCPHYEKVSGDYGHPVYIVQEMPPQSPANIYYKV
modifications: full-length
B5: P52792 (protein, UniProt P52792 1-465, looked up)
chain: MLDDRARMEATKKEKVEQILAEFQLQEEDLKKVMSRMQKEMDRGLKLETHQEASVKMLPTYVRSTPEGSEVGDFLSLDLGGTNFRVMLVKVGEGEAGQWSVKTKHQMYSIPEDAMTGTAEMLFDYISECISDFLDKHQMKHKKLPLGFTFSFPVRHEDIDKGILLNWTKGFKASGAEGNNIVGLLRDAIKRRGDFEMDVVAMVNDTVATMISCYYEDRQCEVGMIVGTGCNACYMEEMQNVELVEGDEGRMCVNTEWGAFGNSGELDEFLLEYDRMVDESSVNPGQQLYEKIIGGKYMGELVRLVLLKLVEENLLFHGEASEQLRTRGAFETRFVSQVESDSGDRRQILNILSTLGLRPSVADCDIVRRACESVSTRAAHMCSAGLAGVINRMRESRSEDVMRITVGVDGSVYKLHPSFKERFHASVRRLTPNCEITFIESEEGSGRGAALVSAVACKKACMLGQ
modifications: full-length
B6: P63158 (protein, UniProt P63158 1-215, looked up)
chain: MGKGDPKKPRGKMSSYAFFVQTCREEHKKKHPDASVNFSEFSKKCSERWKTMSAKEKGKFEDMAKADKARYEREMKTYIPPKGETKKKFKDPNAPKRPPSAFFLFCSEYRPKIKGEHPGLSIGDVAKKLGEMWNNTAADDKQPYEKKAAKLKEKYEKDIAAYRAKGKPDAAKKGVVKAEKSKKKKEEEDDEEDEEDEEEEEEEEDEDEEEDDDDE
modifications: full-length
B7: P51432 (protein, UniProt P51432 1-1234, looked up)
chain: MAGARPGVHALQLEPPTVVETLRRGSKFIKWDEEASSRNLVTLRVDPNGFFLYWTGPNMEVDTLDISSIRDTRTGRYARLPKDPKIREVLGFGGPDTRLEEKLMTVVAGPDPVNTTFLNFMAVQDDTVKVWSEELFKLAMNILAQNASRNTFLRKAYTKLKLQVNQDGRIPVKNILKMFSADKKRVETALESCGLNFNRSESIRPDEFPLEIFERFLNKLCLRPDIDKILLEIGAKGKPYLTLEQLMDFINQKQRDPRLNEVLYPPLRSSQARLLIEKYETNKQFLERDQMSMEGFSRYLGGEENGILPLEALDLSMDMTQPLSAYFINSSHNTYLTAGQLAGPSSVEMYRQALLWGCRCVELDVWKGRPPEEEPFITHGFTMTTEVPLRDVLEAIAEAAFKTSPYPVILSFENHVDSAKQQAKMAEYCRSIFGDALLIDPLDKYPLSAGIPLPSPQDLMGRILVKNKKRHRPSTGVPDSSVRKRPLEQSNSALSESSAATEPSSPQLGSPSSDSCPGLSNGEEVGLEKTSLEPQKSLGEESLSREPNVPMPDRDREDEEEDEEEEETTDPKKPTTDEGTASSEVNATEEMSTLVNYVEPVKFKSFEAARKRNKCFEMSSFVETKAMEQLTKSPMEFVEYNKQQLSRIYPKGTRVDSSNYMPQLFWNVGCQLVALNFQTLDLPMQLNAGVFEYNGRSGYLLKPEFMRRPDKSFDPFTEVIVDGIVANALRVKVISGQFLSDKKVGIYVEVDMFGLPVDTRRKYRTRTSQGNSFNPVWDEEPFDFPKVVLPTLASLRIAAFEEGGKFVGHRILPVSAIRSGYHYVCLRNEANQPLCLPALLIYTEASDYIPDDHQDYAEALINPIKHVSLMDQRAKQLAALIGESEAQASTETYQETPCQQPGSQLPSNPTPNPLDASPRWPPGPTTSSTSSSLSSPGQRDDLIASILSEVTPTPLEELRSHKAMVKLRSRQDRDLRELHKKHQRKAVALTRRLLDGLAQARAEGKCRPSPSALGKATNSEDVKEEEEAKQYREFQNRQVQSLLELREAQADVETKRKLEHLRQAHQRLKEVVLDTHTTQFKRLKELNEREKKELQKILDRKRNNSISEAKTREKHKKEVELTEINRRHITESVNSIRRLEEAQKQRHERLVAGQQQVLQQLEEEEPKLLAQLTQECQEQRERLPQEIRRCLLGETAEGLGDGPLVACASNGHAPGSGGHLSSADSESQEENTQL
modifications: full-length
B8: P70429 (protein, UniProt P70429 1-414, looked up)
chain: MSEQSICQARASVMVYDDTSKKWVPIKPGQQGFSRINIYHNTASSTFRVVGVKLQDQQVVINYSIVKGLKYNQATPTFHQWRDARQVYGLNFASKEEATTFSNAMLFALNIMNSQEGGPSTQRQVQNGPSPEEMDIQRRQVMEQQHRQESLERRISATGPILPPGHPSSAASTTLSCSGPPPPPPPPVPPPPTGSTPPPPPPLPAGGAQGTNHDESSASGLAAALAGAKLRRVQRPEDASGGSSPSGTSKSDANRASSGGGGGGLMEEMNKLLAKRRKAASQTDKPADRKEDESQTEDPSTSPSPGTRATSQPPNSSEAGRKPWERSNSVEKPVSSLLSRTPSVAKSPEAKSPLQSQPHSRVKPAGSVNDVGLDALDLDRMKQEILEEVVRELHKVKEEIIDAIRQELSGISTT
modifications: full-length
B9: P60824 (protein, UniProt P60824 1-172, looked up)
chain: MASDEGKLFVGGLSFDTNEQALEQVFSKYGQISEVVVVKDRETQRSRGFGFVTFENIDDAKDAMMAMNGKSVDGRQIRVDQAGKSSDNRSRGYRGGSAGGRGFFRGGRSRGRGFSRGGGDRGYGGGRFESRSGGYGGSRDYYASRSQGGSYGYRSSGGSYRDSYDSYATHNE
modifications: full-length
B10: P56695 (protein, UniProt P56695 1-890, looked up)
chain: MNSGTPPPSPSGPPPPPAPQPQARARLNATASLEQDKIEPPRAPRPQADPSAGRSAGEAAAPEPRAPQTGSREETDRAGPMKADVEIPFEEVLEKAKAGDPKAQTEVGKHYLRLANDADEELNSCSAVAWLILAAKQGRREAVKLLRRCLADRKGITSENEAEVKQLSSETDLERAVRKAALVMYWKLNPKKKKQVAVSELLENVGQVNEQDGGAQPGPVPKSLQKQRRMLERLVSSESKNYIALDDFVELTKKYAKGIIPTNLFLQDEDEDEDELAGKSPEDLPLRQKVVKYPLHAIMEIKEYLIDVASKAGMHWLSTIVPTHHINALIFFFIISNLTIDFFAFFIPLVVFYLSFVSMVICTLKVFQDSKAWENFRTLTDLLLRFEPNLDVEQAEVNFGWNHLEPYIHFLLSVVFVIFSFPLASKDCIPCSELAVISTFFTVTSYMSLSSSAEPYTRRALVTEVAAGLLSLLPTVPVDWRFLKVLGQTFFTVPVGHFIILNVSLPCLLYVYLFYLFFRMAQLRNFKGTYCYLVPYLVCFMWCELSVVILLQSTGLGLVRASIGYFLFLFALPILVAGLALMGTVQFARWFLSLDLTKIMVTTVICGVPLLFRWWTKANFSVMGMVKSLTKSSMVKLILVWLTAILLFCWFYVYRSEGMKVYNSTLTWQQYGFLCGPRAWKETNMARTQILCSHLEGHRVTWTGRFKYVRVTEIDNSAESAINMLPFFLGDWMRCLYGEAYPSCSSGNTSTAEEELCRLKQLAKHPCHIKKFDRYKFEITVGMPFGTNGNRGHEEDDITKDIVLRASSEFKDVLLNLRQGSLIEFSTILEGRLGSKWPVFELKAISCLNCMTQLSPARRHVKIEQDWRSTVHGALKFAFDFFFFPFLSAA
modifications: full-length

Test system: intracellular proteome of ENR+CD and ENR organoids
Assay: LC-MS/MS TMT proteomics of ENR+CD versus ENR organoids
Type: cell-based, C57BL/6 mice
Conditions: for Average logFC / M1-1 Log2 Median Normalized / M1-2 Log2 Median Normalized / M2-1 Log2 Median Normalized / M2-2 Log2 Median Normalized: protein abundance, ENR+CD versus ENR organoids; for Average logFC: aggregate of the four sample pairs; for M1-1 Log2 Median Normalized: replicate M1-1; for M1-1 Log2 Median Normalized / M1-2 Log2 Median Normalized / M2-1 Log2 Median Normalized / M2-2 Log2 Median Normalized: log2 ratio; for M1-2 Log2 Median Normalized: replicate M1-2; for M2-1 Log2 Median Normalized: replicate M2-1; for M2-2 Log2 Median Normalized: replicate M2-2; for change: up = enriched in ENR+CD, down = enriched in ENR, FDR<0.05 and log fold change cut-off

Molecule | Average logFC | M1-1 Log2 Median Normalized | M1-2 Log2 Median Normalized | M2-1 Log2 Median Normalized | M2-2 Log2 Median Normalized | change
B1 | −1.382 | −1.162 | −0.964 | −1.6925 | −1.71 | down
B2 | −1.721 | −1.558 | −2.656 | −2.1955 | −0.474 | down
B3 | 1.372 | 1.736 | 1.385 | 1.0905 | 1.276 | up
B4 | −1.24 | −0.883 | −1.258 | −1.7545 | −1.065 | down
B5 | 1.166 | 1.847 | 0.711 | 1.3025 | 0.805 | up
B6 | −1.338 | −1.875 | −1.062 | −1.2145 | −1.339 | down
B7 | −1.187 | −1.261 | −1.255 | −1.1345 | −1.096 | down
B8 | 1.275 | 1.275 | 1.519 | 1.2085 | 1.206 | up
B9 | 1.155 | 0.902 | 1.138 | 1.3145 | 1.267 | up
B10 | 1.149 | 1.527 | 0.901 | 0.7335 | 1.433 | up

Reference: patent publication US11994512B2, “Single-cell genomic methods to generate ex vivo cell systems that recapitulate in vivo biology with improved fidelity” (Massachusetts Institute of Technology, priority 2018, dated 2024)
